# Publication PMC12768131, “Common cold embecovirus imprinting primes broadly neutralizing antibody responses to SARS-CoV-2 S2” (The Journal of experimental medicine, 2025)
# B1: R125–61 Fab (Fab, V domains shown)
# VH: QVQLQESGPGLVKPSETLSLICTVSGGSITRDFWSWVRQPPGKGLEWIGYGYYRGSTNYNPSLESRVTISVDTSKNQFSLKLTSVTAADTAVYYCARETAHNWIDTWGQGILVTVSS
# VL: DIVMTQSPESLALSLGERATINCKSSQTVSFTSNNKNYLAWYQQKPRQPPKLLFYWASTRHSGVPDRFSGSGSGTDFTLTINSLQAEDVAVYFCHQYFSTPWTFGQGTKVEI
# Molecular target: T1, full-length SARS-CoV-2 spiketrimer (HP-GSAS-Mut7) (SARS-CoV-2, ancestral (Wuhan-Hu-1), stabilised)
# T1 construct: also called full-length spike trimer; full-length spike
# Test: BLI
# Conditions: both partners purified
binder,measurement,value
B1,Kd,4.7 nM
